In US20220204627A1 (WILLIAM ROBERT ARATHOON LIVING TRUST DATED AUGUST 29 2016, published 2022):
Each block holds one binder with its values, some of them ahead of it.

How the values were obtained:
[1] = target: T1, human CD47-Fc fusion protein (R&D systems) (human, UniProt Q08722 19-141); test: ELISA, Fc-tagged CD47 coated on the plate
T1 construct: Bought (R&D systems); also called Fc-tagged CD47; not shown: Fc part of the bought fusion protein

[2] = target: T2, human P Glycoprotein (Pgp) / Multidrug resistance protein 1 (MDR1), gene ABCB1, on cells (human, UniProt P08183 1-1280); test: flow cytometry on 293T cells stably expressing human ABCB1 (293T_ABCB1_OX; the cells also carry CD47); 293T_ABCB1_OX cells: Pgp overexpressed, CD47 also present
T2 construct: also called KPB1; KBP1

[3] = target: T2, human P Glycoprotein (Pgp) / Multidrug …; test: cell-based or functional assay
[4] = target: T3, cynomolgus CD47 on erythrocytes (cynomolgus, UniProt A0A5F8AK49 19-323 (rhesus entry)); test: flow cytometry on cynomolgus red blood cells (cy807 RBC), Alexa Fluor 647 channel
T3 construct: whole, on cells; also called cynomolgus RBCs

[5] = target: T4, human CD47 on cells (human, UniProt Q08722 19-323); test: flow cytometry on human red blood cells (h408 RBC), Alexa Fluor 647 channel
T4 construct: also called KT14 (target name); leukocyte surface antigen CD47

[6] = target: T1, human CD47-Fc fusion protein (R&D …); test: ELISA, plate coated with human CD47-Fc; parameters: Bmax: unit not given here
[7] = target: T1, human CD47-Fc fusion protein (R&D …); test: ELISA, binding to CD47; parameters: Bmax: unit not given here
[8] = target: T2, human P Glycoprotein (Pgp) / Multidrug …; test: flow cytometry on 293T cells stably expressing human ABCB1 (293T_ABCB1_OX; the cells also carry CD47)

B1: 15D3 IgG1 KK/5F9 IgG1 DD/UIC2 (bispecific antibody)
chain 1: not shown
chain 2: not shown
chain 3: DVVMTQTPRSLPVSLGDQASISCRSSQSLLHSNGNTYLHWYLQKPGQSPKLLIYKVSNRFSGVPDRFSGSGSGTDFTLKISRVEAEDLGVYFCSQSTHIPPWTFGGGTKLDIKRTVAAPSVFIFPPSDEQLKSGTASVVCLLNNFYPREAKVQWKVDNALQSGNSQESVTEQDSKDSTYSLSSTLTLSKADYEKHKVYACEVTHQGLSSPVTKSFNRGEC
Kd [1]: 1620 nM

B4: 5F9/M89 (5F9 heavy chain with M89 light chain) (antibody, human IgG1, V domains shown)
VH: QVQLVQSGAEVKKPGASVKVSCKASGYTFTNYNMHWVRQAPGQRLEWMGTIYPGNDDTSYNQKFKDRVTITADTSASTAYMELSSLRSEDTAVYYCARGGYRAMDYWGQGTLVTVSS
VL: EIVLTQSPATLSLSPGERATLSCRASQSVGGSYLAWYQQKPGQAPRLLIYGASRRATGIPARFSGSGSGTDFTLTISSLQPEDFASYFCQQTNTFPLTFGGGTKVEIK
notes: Light chain shuffle construct; human IgG1 / kappa constant regions
Bmax [6]: 4.22 | Kd [6]: 1510 nM

B6: 5F9/15D3 (5F9 heavy chain with 15D3 light chain) (antibody, human IgG1, V domains shown)
VH: QVQLVQSGAEVKKPGASVKVSCKASGYTFTNYNMHWVRQAPGQRLEWMGTIYPGNDDTSYNQKFKDRVTITADTSASTAYMELSSLRSEDTAVYYCARGGYRAMDYWGQGTLVTVSS
VL: DVLMTQTPLSLPVSLGDQASISCRSSQSIVHSTGNTYLEWYLQKPGQSPKLLIYKVSNRFSGVPDRFSGSGSGTDFTLKISRLEAEDLGVYYCFQGSHFPRTFGGGTRLEIK
notes: as for B4
Bmax [6]: 2.96 | Kd [6]: 0.257 nM

The remaining lines, values ahead:

EC50 [2]: 75.5 nM | Vincristine IC50 (nM) on N6/ADR cells with antibody at 50 ug/mL [3]: 0.002 nM
B2: Ab1 (15D3 IgG1 DD / KT14 IgG1 KK / MRK16 VL-Hz1) (bispecific antibody, V domains shown)
VH 1: EVKVVESGGVLVRPGGSLKLSCAASGFTFSRYTMSWVRQTPEKRLEWVATISSGGGNTYYPDSVKGRFTVSRDNAMSSLYLQMSSLRSEDTALYYCARYGAGDAWFAYWGQGTLVTVSA
VH 2: QVQLVQSGAEVKKPGASVKVSCKASGYTFTNYNMHWVRQAPGQRLEWMGTIYPGNDDTSYNQKFKDRVTITADTSASTAYMELSSLRSEDTAVYYCARGGYRAMDYWGQGTLVTVSS
VL: DIVMTQTPLSSPVTLGQPASISCRSSQSIVHSTGQTYLEWYQQRPGQPPRLLIYKISNRFSGVPDRFSGSGAGTDFTLKISRVEAEDVGVYYCFQASHFPRTFGQGTKLEIK
notes: Human IgG1 heavy chains with DD (K392D, K409D) on the 15D3 arm and KK (E356K, D399K) on the KT14 (5F9) arm; kappa light chain

R4 (percent of red blood cells in the positive gate R4) [4]: 0.483% | binding result [4]: no binding | Kd [1]: 145 nM | R4 (percent of red blood cells in the positive gate R4) [5]: 0.609% | EC50 [2]: 40.3 nM | Vincristine IC50 (nM) on N6/ADR cells with antibody at 50 ug/mL [3]: 0.0461 nM
B3: KBisP1.1 bispecific antibody (15D3 IgG1 DD/5F9 IgG1 KK/MRK16) (bispecific antibody, V domains shown)
VH 1: EVKVVESGGVLVRPGGSLKLSCAASGFTFSRYTMSWVRQTPEKRLEWVATISSGGGNTYYPDSVKGRFTVSRDNAMSSLYLQMSSLRSEDTALYYCARYGAGDAWFAYWGQGTLVTVSA
VH 2: QVQLVQSGAEVKKPGASVKVSCKASGYTFTNYNMHWVRQAPGQRLEWMGTIYPGNDDTSYNQKFKDRVTITADTSASTAYMELSSLRSEDTAVYYCARGGYRAMDYWGQGTLVTVSS
VL: DVLMTQTPVSLSVSLGDQASISCRSSQSIVHSTGNTYLEWYLQKPGQSPKLLIYKISNRFSGVPDRFSGSGSGTDFTLKISRVEAEDLGVYYCFQASHFPRTFGGGTKLEIK
notes: 15D3 VH on human IgG1 with K392D and K409D (DD), 5F9 VH on human IgG1 with E356K and D399K (KK), EU numbering; also called KNJYBisP1.1; KBis1.1

Bmax [7]: 3.45 | Kd [7]: 169 nM
B5: 15D3/UIC2 (15D3 heavy chain with UIC2 light chain) (antibody, human IgG1, V domains shown)
VH: EVKVVESGGVLVRPGGSLKLSCAASGFTFSRYTMSWVRQTPEKRLEWVATISSGGGNTYYPDSVKGRFTVSRDNAMSSLYLQMSSLRSEDTALYYCARYGAGDAWFAYWGQGTLVTVSA
VL: DVVMTQTPRSLPVSLGDQASISCRSSQSLLHSNGNTYLHWYLQKPGQSPKLLIYKVSNRFSGVPDRFSGSGSGTDFTLKISRVEAEDLGVYFCSQSTHIPPWTFGGGTKLDIK
notes: as for B4

EC50 [8]: 137 nM | Vincristine IC50 (nM) on N6/ADR cells with antibody at 50 ug/mL [3]: 0.0589 nM
B7: Ab5 (15D3 HC-Hz1 DD hIgG1 / KT14 IgG1 KK / MRK16 VL-Hz1) (bispecific antibody, V domains shown)
VH 1: EVQLVESGGVVVQPGGSLRLSCAASGFTFSRYTMSWVRQAPGKGLEWVATISSGGGQTYYPDSVKGRFTVSRDNSKNSLYLQMNSLRTEDTALYYCARYGAGDAWFAYWGQGTLVTVSS
VH 2: QVQLVQSGAEVKKPGASVKVSCKASGYTFTNYNMHWVRQAPGQRLEWMGTIYPGNDDTSYNQKFKDRVTITADTSASTAYMELSSLRSEDTAVYYCARGGYRAMDYWGQGTLVTVSS
VL: DIVMTQTPLSSPVTLGQPASISCRSSQSIVHSTGQTYLEWYQQRPGQPPRLLIYKISNRFSGVPDRFSGSGAGTDFTLKISRVEAEDVGVYYCFQASHFPRTFGQGTKLEIK
notes: Human IgG1 heavy chains with DD on the 15D3 arm and KK on the KT14 (5F9) arm; kappa light chain
